Series [1] deals with the molecule itself. Description: cryo-EM structure; reconstituted complexes with TRIP13(E253Q) and ATPγS, 0.3 mg/mL, Titan Krios 300 kV, RELION3.
Series [2] concerns the target T1, REV7 (R124A mutant), full-length (human, UniProt Q9UI95 1-211, R124A).
T1 construct: REV7 (MAD2L2, MAD2B), human, 211 residues, R124A; R124A was introduced to improve crystallization; also called MAD2L2; MAD2B; source: E. coli BL21 CodonPlus(DE3)-RIL, coexpressed with the SHLD3 fragment, purified (HisTrap, HiTrap Q, Superdex 200); not shown: His6-SUMO, N-terminal, cleaved
Nature of the series: SEC-MALS; coexpressed, co-purified SHLD3(35–74)–REV7(R124A) complex; Superdex200 10/300, 20 mM Tris·HCl pH 7.5, 150 mM NaCl, 2 mM DTT. As to conditions: both partners purified.

In series [3] the target is T2, REV7 (human, UniProt Q9UI95 1-211).
T2 construct: REV7 (MAD2L2, MAD2B), human, 211 residues; also called MAD2L2; MAD2B; not shown: His6-SUMO, N-terminal, cleaved
Description: crystal structure; SHLD2.3–REV7_(4) complex (peak Q2); hanging drop, 0.1 M Na acetate pH 5.6, 1.5 M Na formate, 20 °C; 3.8 Å. Conditions: both partners purified.

Series [4] has as its target T1, REV7 (R124A mutant), full-length. Nature of the series: crystal structure; coexpressed, co-purified SHLD3s–REV7(R124A) complex; hanging drop, 0.2 M ammonium acetate, 0.1 M Na citrate pH 5.6, 30% PEG4000, 20 °C; 2.7 Å. As to conditions: both partners purified.

A word on the stoichiometry N: it is a count of units in the complex or per binding partner.

T1 sequence (Q9UI95 whole entry R124A, the tested form may be a part): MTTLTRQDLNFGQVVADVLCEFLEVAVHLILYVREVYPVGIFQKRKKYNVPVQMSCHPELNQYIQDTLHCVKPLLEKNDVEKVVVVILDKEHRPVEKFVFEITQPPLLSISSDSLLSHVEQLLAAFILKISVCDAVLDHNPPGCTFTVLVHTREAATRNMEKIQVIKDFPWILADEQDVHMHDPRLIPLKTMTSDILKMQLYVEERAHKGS
T2 sequence (Q9UI95 whole entry): as the sequence (Q9UI95 whole entry R124A, the tested form may be a part) above, with A124R counted along it

B1: TRIP13 catalytic mutant (E253Q) hexamer (enzyme)
chain: MDEAVGDLKQALPCVAESPTVHVEVHQRGSSTAKKEDINLSVRKLLNRHNIVFGDYTWTEFDEPFLTRNVQSVSIIDTELKVKDSQPIDLSACTVALHIFQLNEDGPSSENLEEETENIIAANHWVLPAAEFHGLWDSLVYDVEVKSHLLDYVMTTLLFSDKNVNSNLITWNRVVLLHGPPGTGKTSLCKALAQKLTIRLSSRYRYGQLIEINSHSLFSKWFSESGKLVTKMFQKIQDLIDDKDALVFVLIDQVESLTAARNACRAGTEPSDAIRVVNAVLTQIDQIKRHSNVVILTTSNITEKIDVAFVDRADIKQYIGPPSAAAIFKIYLSCLEELMKCQIIYPRQQLLTLRELEMIGFIENNVSKLSLLLNDISRKSEGLSGRVLRKLPFLAHALYVQAPTVTIEGFLQALSLAVDKQFEERKKLAAYI
notes: TRIP13, AAA+ ATPase, E253Q; used with ATPγS; also called TRIP13(E253Q); TRIP13 (E253Q); source: E. coli BL21 CodonPlus(DE3)-RIL, purified (HiTrap Q, Superdex 200)
As to B1, the “stoichiometry N” value in series [1] amounted to 6.

B2: SHLD3 35- to 74-residue fragment (domain or fragment, human, UniProt Q6ZNX1 35-74, looked up)
chain: LSRFIPWFPYDGSKLPLRPKRSPPVISEEAAEDVKQYLTI
notes: SHLD3, human, 250 residues; residues 35-74; also called SHLD3_(35–74); source: E. coli, coexpressed with REV7(R124A), purified as the complex
Consider B2, for which the binding result in series [2] is recorded as “binds”.

B3: SHLD2 fragment (residues 1 to 19), the SHLD2 part of SHLD2.3 (domain or fragment, human, UniProt Q86V20 1-19, looked up)
chain: MSGGSQVHIFWGAPIAPLK
notes: In the crystal it stood on one chain with SHLD3(1-58); written apart for the SHLD2–SHLD3 and SHLD2–REV7 contacts; also called SHLD2(residues 1 to 19); source: E. coli BL21 CodonPlus(DE3)-RIL, as part of the SHLD2.3 fusion chain, purified with REV7
Consider B3, for which the binding result in series [3] is reported as “binds”.

B4: SHLD3s fusion protein (SHLD3 residues 35 to 58 and REV3 residues 1887 to 1894) (other, UniProt Q6ZNX1 35-58, looked up)
chain: LSRFIPWFPYDGSKLPLRPKRSPPREEIMATL
notes: SHLD3, human, residues 35-58; also called SHLD3_(35–58)
Regarding B4, in series [4], the binding result is on record as “binds”.

Source of the values: PMC7923543, “Molecular mechanisms of assembly and TRIP13-mediated remodeling of the human Shieldin complex” (Proceedings of the National Academy of Sciences of the …, 2021).
